Experimental data published in US20050037969A1 (ARBOR VITA, published 2005).
Ends that are not written are not given here. * marks the point of attachment. Biotin = O=C1N[C@H]2[C@H](CS[C@H]2CCCCC(=O)*)N1

How the values were obtained:
[1] = target: T1, GST-41.8 kD protein (KIAA0751) PDZ domain fusion protein (Mus musculus (Mouse), UniProt Q9EQZ7 682-763); assay: G assay: biotinylated peptide on plate-bound GST-PDZ fusion, streptavidin-HRP, OD 450 nm
T1 construct: also called 41 kd; hypoth; not shown: glutathione S-transferase encoded by vector pGEX-3X (Pharmacia)
T1 sequence: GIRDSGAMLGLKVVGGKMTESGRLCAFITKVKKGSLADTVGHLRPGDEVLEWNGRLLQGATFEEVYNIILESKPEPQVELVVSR

[2] = target: T2, GST-PSD95 fusion protein (PDZ domains 1-3) (human, UniProt P31016 56-395 (rat entry)); assay: G assay: biotinylated peptide on plate-bound GST-PDZ fusion, OD 450 nm
T2 construct: also called human post-synaptic density protein 95; not shown: glutathione S-transferase encoded by vector pGEX-3X (Pharmacia)
T2 sequence (P31016 other isoform, or with tags, fused parts or gaps): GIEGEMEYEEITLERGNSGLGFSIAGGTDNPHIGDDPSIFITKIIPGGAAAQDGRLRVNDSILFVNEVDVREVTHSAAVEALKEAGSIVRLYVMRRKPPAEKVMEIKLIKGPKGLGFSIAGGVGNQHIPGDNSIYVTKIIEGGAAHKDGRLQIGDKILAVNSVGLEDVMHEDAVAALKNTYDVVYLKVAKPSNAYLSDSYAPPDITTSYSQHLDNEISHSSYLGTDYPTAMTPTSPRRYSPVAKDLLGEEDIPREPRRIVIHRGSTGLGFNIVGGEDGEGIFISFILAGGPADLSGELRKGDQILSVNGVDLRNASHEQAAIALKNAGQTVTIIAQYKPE

[3] = target: T3, GST-TIAM1 PDZ domain fusion protein (Homo sapiens (Human), UniProt Q13009 845-931); assay: A/G plate assays, Table 2 matrix
T3 construct: also called TLAM1; T-lymphoma invasion and metastasis inducing protein 1; not shown: glutathione S-transferase encoded by vector pGEX-3X (Pharmacia)
T3 sequence (Q13009 other isoform, or with tags, fused parts or gaps): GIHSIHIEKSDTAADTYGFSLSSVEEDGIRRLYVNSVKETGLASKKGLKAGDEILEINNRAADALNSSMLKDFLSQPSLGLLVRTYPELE

[4] = target: T2, GST-PSD95 fusion protein (PDZ domains …); assay: G assay titration of biotinylated peptide on plate-bound GST-PDZ, apparent affinity from saturation fit
[5] = target: T2, GST-PSD95 fusion protein (PDZ domains …); assay: G assay: biotinylated peptide on plate-bound GST-PDZ fusion, streptavidin-HRP, OD 450 nm
[6] = target: T4, GST-AF6 PDZ domain fusion protein (Homo sapiens (Human), UniProt P55196 1001-1093); assay: A/G plate assays, Table 2 matrix
T4 construct: also called af-6 protein; not shown: glutathione S-transferase encoded by vector pGEX-3X (Pharmacia)
T4 sequence: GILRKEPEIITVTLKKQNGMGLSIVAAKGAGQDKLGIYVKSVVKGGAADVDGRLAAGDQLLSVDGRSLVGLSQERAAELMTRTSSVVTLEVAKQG

[7] = target: T5, GST-LIM protein PDZ domain fusion protein (Human, UniProt Q96HC4 2-85); assay: A/G plate assays, Table 2 matrix
T5 construct: also called Human LIM protein; not shown: glutathione S-transferase encoded by vector pGEX-3X (Pharmacia)
T5 sequence: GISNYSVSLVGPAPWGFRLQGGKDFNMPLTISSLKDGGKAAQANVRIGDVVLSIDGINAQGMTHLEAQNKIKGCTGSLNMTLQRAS

[8] = target: T6, GST-RGS12 PDZ domain fusion protein (human, UniProt O14924 17-85); assay: A/G plate assays, Table 2 matrix
T6 construct: also called human regulator of G-protein signalling 12; not shown: glutathione S-transferase encoded by vector pGEX-3X (Pharmacia)
T6 sequence: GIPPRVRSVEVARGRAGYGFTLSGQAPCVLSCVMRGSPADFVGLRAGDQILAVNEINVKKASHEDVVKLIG

[9] = target: T1, GST-41.8 kD protein (KIAA0751) PDZ …; assay: A/G plate assays, Table 2 matrix
[10] = target: T7, KIAA0807 (PDZ domain)-GST fusion protein (human, UniProt Q6P0Q8 1104-1192); assay: G assay on KIAA0807:GST fusion protein, 10 uM labeled peptide
T7 construct: also called K807; KIAA807; not shown: glutathione S-transferase encoded by vector pGEX-3X (Pharmacia)
T7 sequence: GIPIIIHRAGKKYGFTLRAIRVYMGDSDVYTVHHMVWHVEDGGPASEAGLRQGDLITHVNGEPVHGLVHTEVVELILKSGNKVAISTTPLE

[11] = target: T1, GST-41.8 kD protein (KIAA0751) PDZ …; assay: A/G assays
[12] = target: T2, GST-PSD95 fusion protein (PDZ domains …); assay: A/G plate assays, Table 2 matrix
[13] = target: T2, GST-PSD95 fusion protein (PDZ domains …); assay: A/G assays
[14] = target: T7, KIAA0807 (PDZ domain)-GST fusion protein; assay: A/G plate assays, Table 2 matrix
[15] = target: T8, GST-KIAA0303 PDZ domain fusion protein (Homo sapiens (Human), UniProt O15021 1138-1228); assay: A/G plate assays, Table 2 matrix
T8 construct: also called K303; not shown: glutathione S-transferase encoded by vector pGEX-3X (Pharmacia)
T8 sequence: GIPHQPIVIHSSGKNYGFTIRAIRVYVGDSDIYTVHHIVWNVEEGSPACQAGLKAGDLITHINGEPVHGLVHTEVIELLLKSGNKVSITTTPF

B1: CD138 C-terminal peptide AA18L, biotinylated (peptide)
peptide: Biotin-PKQANGGAYQKPTKQEEFYA
notes: also called CD138 (syndecan-1); CD138 (syndecan)
Question: Does B1 bind [1]?
Answer: Result: binds

Question: Does B1 bind [2]?
Answer: Result: no binding

Question: Does B1 bind [3]?
Answer: Result: binds

Question: For Biotin-KDITSDSENSNFRNEIQSLV (also called CD95 (Apo-1/Fas); AAI3L) [CD95 (Fas) C-terminal peptide AA13L, biotinylated], which Kd [4] is on record?
Answer: Its Kd is 85 µM.

Question: Does Biotin-KDITSDSENSNFRNEIQSLV (also called CD95 (Apo-1/Fas); AAI3L) [CD95 (Fas) C-terminal peptide AA13L, biotinylated] bind [1]?
Answer: Result: binds

Question: Does Biotin-TREDIYVNYPTFSRRPKTRV [DNAM-1 C-terminal peptide AA22L, biotinylated] bind [5]?
Answer: Result: binds

Question: Does Biotin-TREDIYVNYPTFSRRPKTRV [DNAM-1 C-terminal peptide AA22L, biotinylated] bind [6]?
Answer: Result: binds

Question: Does Biotin-TREDIYVNYPTFSRRPKTRV [DNAM-1 C-terminal peptide AA22L, biotinylated] bind [7]?
Answer: Result: binds

Question: Does Biotin-TREDIYVNYPTFSRRPKTRV [DNAM-1 C-terminal peptide AA22L, biotinylated] bind [8]?
Answer: Result: binds

Question: Does Biotin-TREDIYVNYPTFSRRPKTRV [DNAM-1 C-terminal peptide AA22L, biotinylated] bind [9]?
Answer: Result: binds

Question: Does Biotin-LASKSAEEGKQIPDSLSTDL [DOCK2 C-terminal peptide AA40L, biotinylated] bind [10]?
Answer: Result: binds

Question: Does Biotin-LASKSAEEGKQIPDSLSTDL [DOCK2 C-terminal peptide AA40L, biotinylated] bind [11]?
Answer: Result: no binding

Question: Does Biotin-LASKSAEEGKQIPDSLSTDL [DOCK2 C-terminal peptide AA40L, biotinylated] bind [12]?
Answer: Result: binds

Question: Does Biotin-ARKANMKGSYSLVEAQKSKV (also called CD106) [VCAM1 C-terminal peptide AA17L, biotinylated] bind [13]?
Answer: Result: no binding

Question: Does Biotin-ARKANMKGSYSLVEAQKSKV (also called CD106) [VCAM1 C-terminal peptide AA17L, biotinylated] bind [14]?
Answer: Result: binds

Question: Does Biotin-ARKANMKGSYSLVEAQKSKV (also called CD106) [VCAM1 C-terminal peptide AA17L, biotinylated] bind [15]?
Answer: Result: binds

Question: Does Biotin-ARKANMKGSYSLVEAQKSKV (also called CD106) [VCAM1 C-terminal peptide AA17L, biotinylated] bind [9]?
Answer: Result: binds

Question: Does Biotin-ARKANMKGSYSLVEAQKSKV (also called CD106) [VCAM1 C-terminal peptide AA17L, biotinylated] bind [3]?
Answer: Result: binds

Question: Biotin-ISGTPTSTMVHGMTSSSSVV [Clasp-2 C-terminal peptide AA2L, biotinylated] was tested. Which Kd [4] did it give?
Answer: The Kd was 45 µM.

Question: Does Biotin-STNHSIGSTQSTPCSTSSMA (also called CD105 (endoglin)) [CD105 C-terminal peptide AA16L, biotinylated] bind [13]?
Answer: Result: no binding

Question: Does Biotin-STNHSIGSTQSTPCSTSSMA (also called CD105 (endoglin)) [CD105 C-terminal peptide AA16L, biotinylated] bind [11]?
Answer: Result: no binding

Question: Does Biotin-STNHSIGSTQSTPCSTSSMA (also called CD105 (endoglin)) [CD105 C-terminal peptide AA16L, biotinylated] bind [7]?
Answer: Result: binds
